Measurements from patent publication US20100239590A1.

Target: human IL-17RC on HS68 foreskin fibroblast cells (human) (UniProt Q8NAC3)
Experiment: cell-based or functional assay

Sequence of UniProt Q8NAC3 (Q8NAC3 21-791): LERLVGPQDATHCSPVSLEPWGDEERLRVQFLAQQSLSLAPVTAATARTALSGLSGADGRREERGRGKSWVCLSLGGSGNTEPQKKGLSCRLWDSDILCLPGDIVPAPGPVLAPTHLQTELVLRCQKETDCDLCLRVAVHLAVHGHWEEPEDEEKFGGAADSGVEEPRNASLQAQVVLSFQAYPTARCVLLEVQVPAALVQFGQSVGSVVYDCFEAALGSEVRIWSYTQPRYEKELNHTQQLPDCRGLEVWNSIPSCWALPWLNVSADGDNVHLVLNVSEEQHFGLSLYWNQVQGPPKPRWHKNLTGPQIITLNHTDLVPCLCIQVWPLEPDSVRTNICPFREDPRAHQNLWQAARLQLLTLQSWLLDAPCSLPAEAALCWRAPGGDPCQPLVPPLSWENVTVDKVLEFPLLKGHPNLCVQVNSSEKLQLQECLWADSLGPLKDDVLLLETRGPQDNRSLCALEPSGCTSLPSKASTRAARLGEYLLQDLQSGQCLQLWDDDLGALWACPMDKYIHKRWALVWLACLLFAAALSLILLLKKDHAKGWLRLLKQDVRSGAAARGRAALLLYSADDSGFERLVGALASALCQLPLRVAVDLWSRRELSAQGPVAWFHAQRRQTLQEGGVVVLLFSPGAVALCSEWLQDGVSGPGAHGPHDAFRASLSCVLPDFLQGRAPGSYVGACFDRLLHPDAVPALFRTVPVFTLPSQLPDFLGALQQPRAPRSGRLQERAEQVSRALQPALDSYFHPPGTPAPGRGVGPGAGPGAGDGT

- IL-6 induction in HS68 cells, EC50: 5 to 10 ng/mL
Substance: human IL-17A (from UniProt Q16552 24-155) (ligand)
